Values of other authors as cited in publication PMC4884208.

Key:
Assay in all cases: UV-vis
Tyr28 = system: Tyr28
Tyr75 = system: Tyr75
Tyr52 = system: Tyr52
Tyr73 = system: Tyr73
Tyr117 = system: Tyr117
Tyr22 = system: Tyr22
Tyr113 = system: Tyr113
Tyr25 = system: Tyr25
Tyr103 = Tyr103 (UniProt position 122, KVGINYWLAHK); settings: 25.0 C, 0.5 M Gdn-HCl
Tyr36 = Tyr36 (UniProt position 55, FHTSGYDTQAI); settings: 25.0 C, 0.5 M Gdn-HCl
Tyr18 = Tyr18 (UniProt position 37, KDLKGYGGVSL); settings: 25.0 C, 0.5 M Gdn-HCl
Tyr50 = Tyr50 (UniProt position 69, NDSTEYGLFQI); settings: 25.0 C, 0.5 M Gdn-HCl

Row | Substance | pKa (Tyr28) | pKa (Tyr75) | pKa (Tyr52) | pKa (Tyr73) | pKa (Tyr117) | pKa (Tyr22) | pKa (Tyr113) | pKa (Tyr25) | pKa (Tyr103; alkaline-denatured (D) state) | pKa (Tyr103; native (N) state) | pKa (Tyr36; alkaline-denatured (D) state) | pKa (Tyr36; native (N) state) | pKa (Tyr18; alkaline-denatured (D) state) | pKa (Tyr18; native (N) state) | pKa (Tyr50; alkaline-denatured (D) state) | pKa (Tyr50; native (N) state)
1 | Vipoxin neurotoxic phospholipase A2 (basic PLA2 subunit of vipoxin) (Vipera ammodytes meridionalis (inferred; organism not stated in the article)) | 12.17 | 10.45 | 12.17 | 13.23 | 10.45 | 10.45 | 12.17 | 13.23 |  |  |  |  |  |  |  | 
2 | alpha-lactalbumin (Bos taurus) |  |  |  |  |  |  |  |  | 10.3 | 10.5 | 10.3 | 11.8 | 10.3 | 11.8 | 10.3 | 12.7
